The values below come from patent US20210324104A1 (INSERM INSTITUT NATIONAL DE LA SANT ET DE LA RECHERCHE M …, published 2021).

For experiment [1], the target named is T1, nectin-1 (UniProt Q15223 31-517, limits assumed).
T1 construct: whole, on cells
T1 sequence (looked up): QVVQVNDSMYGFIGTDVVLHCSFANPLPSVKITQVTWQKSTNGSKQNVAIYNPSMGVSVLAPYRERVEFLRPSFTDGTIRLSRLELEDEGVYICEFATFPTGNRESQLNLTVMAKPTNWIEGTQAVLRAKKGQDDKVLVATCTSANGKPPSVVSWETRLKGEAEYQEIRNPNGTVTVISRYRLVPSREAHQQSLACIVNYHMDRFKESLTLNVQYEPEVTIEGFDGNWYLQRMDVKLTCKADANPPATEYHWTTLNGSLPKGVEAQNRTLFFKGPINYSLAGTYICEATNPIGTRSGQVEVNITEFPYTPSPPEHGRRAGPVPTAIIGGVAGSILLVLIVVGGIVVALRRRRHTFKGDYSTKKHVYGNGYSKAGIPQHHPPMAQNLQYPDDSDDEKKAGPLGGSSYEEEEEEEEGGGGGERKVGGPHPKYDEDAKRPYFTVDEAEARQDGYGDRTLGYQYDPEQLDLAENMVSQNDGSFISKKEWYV
The experiment is described as follows: western blot of lysates of MDA-MB-231 cells transfected with null vector (wt cells express nectin-1, -2, -3); similar results by FACS. A general note: Immunoblotting shows a protein as a band on a membrane.

In experiment [2] the target is T2, nectin-2 (UniProt Q92692 32-538, limits assumed).
T2 construct: whole, on cells
T2 sequence (looked up): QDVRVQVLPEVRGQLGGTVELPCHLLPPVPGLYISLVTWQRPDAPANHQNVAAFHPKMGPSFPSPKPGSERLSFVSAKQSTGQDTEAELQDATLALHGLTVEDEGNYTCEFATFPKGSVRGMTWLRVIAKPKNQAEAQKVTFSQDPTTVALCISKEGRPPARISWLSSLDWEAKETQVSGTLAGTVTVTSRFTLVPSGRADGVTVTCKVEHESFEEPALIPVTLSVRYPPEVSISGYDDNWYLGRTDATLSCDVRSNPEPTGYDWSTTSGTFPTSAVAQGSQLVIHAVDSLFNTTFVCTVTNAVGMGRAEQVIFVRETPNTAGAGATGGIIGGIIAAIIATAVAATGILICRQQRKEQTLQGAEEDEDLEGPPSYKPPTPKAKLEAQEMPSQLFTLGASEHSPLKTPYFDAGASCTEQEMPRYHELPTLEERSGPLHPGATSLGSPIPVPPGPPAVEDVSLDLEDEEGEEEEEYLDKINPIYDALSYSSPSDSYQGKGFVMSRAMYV
Described as above.

B1: 14A5.2 monoclonal antibody (antibody, V domains shown)
VH: EVLLQQSGPELVKPGASVKIPCKASGYTFTDYTMDWVKQSHGKSLEWIGDINPNNDVTMYNEKFKGRATLTVDKSSSTAYMEVRSLTSEDTAVYYCVRGRGFAYWGQGTLVTVSA
VL: DIVLTQSPASLIVSLGQRATISCRASQSVSTSSNSYMHWYQQKPGQPPKLLIRFASNLESGVPARFSGSGSGTYFTLNIHPVEEEDSATYYCQHSWEIPYTFGGGTKLEIK
notes: Parental non-chimeric monoclonal antibody; also called 14A5.2 mab; 14A5.2-HRP
As to B1, the binding result in experiment [1] and in experiment [2] was “no binding (tested: 1 µg/ml)” throughout.
